Legend:
[1] = molecular target: SARS-CoV-2 spike on live SARS-CoV-2 virus (isolate France/IDF0372/2020) (SARS-CoV-2) (UniProt P0DTC2); experiment: cell-based or functional assay
[2] = molecular target: SARS-CoV-2 spike ectodomain, prefusion-stabilised trimer (刺突 S2P) (SARS-CoV-2); experiment: SPR, captured spike S2P
[3] = molecular target: SARS-CoV-2 spike ectodomain, prefusion-stabilised trimer (刺突 S2P) (SARS-CoV-2); experiment: SPR, captured spike S2P, biphasic dissociation, fast phase kd1
[4] = molecular target: SARS-CoV-2 spike ectodomain, prefusion-stabilised trimer (刺突 S2P) (SARS-CoV-2); experiment: SPR, captured spike S2P, biphasic dissociation, slow phase kd2
[5] = molecular target: SARS-CoV-2 spike ectodomain, prefusion-stabilised trimer (刺突 S2P) (SARS-CoV-2); experiment: SPR, captured spike S2P, no measurable dissociation in ten minutes
[6] = molecular target: SARS-CoV-2 spike ectodomain, prefusion-stabilised trimer (刺突 S2P) (SARS-CoV-2)

Nb6-tri (trivalent Nb6 with two 20 amino acid linkers) (VHH)
mean IC50, plaque reduction neutralisation of live SARS-CoV-2 on VeroE6 cells [1]: 0.16 nM | fold gain in KD against monovalent Nb6 [2]: > 200000 fold | koff [3]: 0.029 s⁻¹ | koff [4]: < 1e-06 s⁻¹

mNb6-tri (trivalent mNb6 with 20 amino acid linkers) (VHH)
Kd [2]: < 0.001 nM | dissociation half-life t1/2 [2]: > 8 天 (days) | koff [5]: < 1e-06 s⁻¹

mNb6 (affinity-matured Nb6, I27Y and P105Y) (VHH)
EC50 [6]: 0.056 nM

Source: CN116472284A
